Source: patent publication USRE47150 (Bayer, dated 2018)
Substitutions are numbered along the chain they refer to. Names may count otherwise.

B1: 2A8 HC_G33P (Fab, V domains shown)
VH: QVQLVESGGGLVQPGGSLRLSCAASGFTFRSYPMSWVRQAPGKGLEWVSSIRGSSSSTYYADSVKGRFTISRDNSKNTLYLQMNSLRAEDTAVYYCARKYRYWFDYWGQGTLVTVSS
VL: DIELTQPPSVSVAPGQTARISCSGDNLRNYYAHWYQQKPGQAPVVVIYYDNNRPSGIPERFSGSNSGNTATLTISGTQAEDEADYYCQSWDDGVPVFGGGTKLTVLG
notes: also called 2A8-1
B2: 4B7 wild-type Fab (Fab, V domains shown)
VH: QVQLQQSGPGLVKPSQTLSLTCAISGDSVSSNSAAWSWIRQSPGRGLEWLGIIYKRSKWYNDYAVSVKSRITINPDTSKNQFSLQLNSVTPEDTAVYYCARWHSDKHWGFDYWGQGTLVTVSS
VL: DIVMTQSPLSLPVTPGEPASISCRSSQSLVFSDGNTYLNWYLQKPGQSPQLLIYKGSNRASGVPDRFSGSGSGTDFTLKISRVEAEDVGVYYCQQYDSYPLTFGQGTKVEIKR
notes: Fab with HA (or c-myc) and 6xHis tag at the C-terminus of the heavy chain; also called 4B7wt; parental 4B7
B3: 2A8 LC_N51V (Fab, V domains shown)
VH: B1 VH with P33G
VL: B1 VL with N51V
notes: also called 2A8-13
B4: 2A8 LC_A32N (Fab, V domains shown)
VH: B1 VH with P33G
VL: B1 VL with A32N
notes: also called 2A8-11
B5: 2A8 HC_S55R (Fab, V domains shown)
VH: B1 VH with P33G, S55R
VL: B1 VL
notes: also called 2A8-8
B6: 2A8 HC_I51D (Fab, V domains shown)
VH: B1 VH with P33G, I51D
VL: B1 VL
notes: also called 2A8-12
B7: 2A8 HC_K99V (Fab, V domains shown)
VH: B1 VH with P33G, K99V
VL: B1 VL
notes: also called 2A8-10
B8: 2A8 HC_I51E (Fab, V domains shown)
VH: B1 VH with P33G, I51E
VL: B1 VL
notes: also called 2A8-6
B9: 2A8 HC_F104Y (Fab, V domains shown)
VH: B1 VH with P33G, F104Y
VL: B1 VL
B10: 2A8 LC_N52G (Fab, V domains shown)
VH: B1 VH with P33G
VL: B1 VL with N52G
B11: 2A8 HC_G33K (Fab, V domains shown)
VH: B1 VH with P33K
VL: B1 VL
B12: 2A8 HC_S54D (Fab, V domains shown)
VH: B1 VH with P33G, S54D
VL: B1 VL
B13: 2A8 LC_D92T (Fab, V domains shown)
VH: B1 VH with P33G
VL: B1 VL with D92T
B14: 2A8 LC_D91R (Fab, V domains shown)
VH: B1 VH with P33G
VL: B1 VL with D91R
B15: 2A8 LC_V96M (Fab, V domains shown)
VH: B1 VH with P33G
VL: B1 VL with V96M
B16: 2A8 LC_V96G (Fab, V domains shown)
VH: B1 VH with P33G
VL: B1 VL with V96G
B17: 2A8 LC_P54L (Fab, V domains shown)
VH: B1 VH with P33G
VL: B1 VL with P54L
B18: 2A8 LC_V96W (Fab, V domains shown)
VH: B1 VH with P33G
VL: B1 VL with V96W
B19: 2A8 LC_D92S (Fab, V domains shown)
VH: B1 VH with P33G
VL: B1 VL with D92S
B20: 2A8 HC_S35L (Fab, V domains shown)
VH: B1 VH with P33G, S35L
VL: B1 VL
B21: 2A8 HC_S55A (Fab, V domains shown)
VH: B1 VH with P33G, S55A
VL: B1 VL
B22: gB9.7 (4B7 HC Q1E+N32D+G44S+K55Y+D62R+Y112D/LC S32R+N35I) (Fab, V domains shown)
VH: B2 VH with Q1E, N32D, G44S, K55Y, D62R, Y112D
VL: B2 VL with S32R, N35I
B23: B41.2 (4B7 HC N32D+D62R+Y112D/LC S32R+D33F+N35I) (Fab, V domains shown)
VH: B2 VH with N32D, D62R, Y112D
VL: B2 VL with S32R, D33F, N35I

Each binder was assayed against T1, mouse tissue factor pathway inhibitor (TFPI) (mouse, UniProt O54819 29-289, limits assumed) (assay: SPR, TFPI immobilized).
T1 construct: bought; also called mTFPI; murine TFPI
T1 sequence (looked up): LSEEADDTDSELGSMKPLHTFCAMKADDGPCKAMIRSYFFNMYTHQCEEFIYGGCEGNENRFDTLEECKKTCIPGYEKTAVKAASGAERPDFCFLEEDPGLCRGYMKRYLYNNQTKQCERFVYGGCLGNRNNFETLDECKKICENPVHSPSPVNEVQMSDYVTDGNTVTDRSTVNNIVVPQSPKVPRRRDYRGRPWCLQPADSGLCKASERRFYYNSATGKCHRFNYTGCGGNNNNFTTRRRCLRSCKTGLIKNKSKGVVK

Going from B1 to B2, the Improvement falls from 2.21 fold to 1 fold.

First: B1
Second: B2
The Kd of the first is 37-fold lower: 1.59 nM for the first, 58.6 nM for the second. The first binds more tightly here.

First: B1
Second: B2
The koff of the first is 88-fold lower: 0.00145 s⁻¹ for the first, 0.128 s⁻¹ for the second.

Compared with B1, B2 is 2.4-fold higher in kon: 912000 M⁻¹ s⁻¹ for the first, 2.18e+06 M⁻¹ s⁻¹ for the second.

Each binder was assayed against T2, human tissue factor pathway inhibitor (TFPI) (human, UniProt P10646 29-304, limits assumed) (assay: SPR, TFPI immobilized).
T2 construct: bought; also called hTFPI; human TFPI
T2 sequence (looked up): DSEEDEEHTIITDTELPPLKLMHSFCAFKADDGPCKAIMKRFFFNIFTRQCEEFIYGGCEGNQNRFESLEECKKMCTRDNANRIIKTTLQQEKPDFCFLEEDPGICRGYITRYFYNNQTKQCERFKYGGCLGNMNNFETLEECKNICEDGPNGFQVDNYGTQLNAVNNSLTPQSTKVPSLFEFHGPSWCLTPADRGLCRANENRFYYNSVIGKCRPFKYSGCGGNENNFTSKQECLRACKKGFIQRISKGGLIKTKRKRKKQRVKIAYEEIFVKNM

Going from B3 to B4, the Improvement falls from 4.32 fold to 1.47 fold.

Going from B5 to B6, the Improvement falls from 2.44 fold to 1.63 fold.

Compared with B7, B1 is higher in Improvement: 2.25 fold for the first, 2.7 fold for the second.

First: B8
Second: B2
The Improvement of the first is higher: 1.78 fold for the first, 1 fold for the second.

Going from B3 to B4, the Kd rises from 0.518 nM to 1.52 nM (2.9-fold). The first binds more tightly here.

B5 and B6 are within 1.5-fold of each other in Kd: 0.917 nM for the first, 1.37 nM for the second.

B7 and B1 are within 1.5-fold of each other in Kd: 0.995 nM for the first, 0.827 nM for the second.

Compared with B8, B2 is 8.8-fold higher in Kd: 1.26 nM for the first, 11.1 nM for the second.

First: B3
Second: B4
The koff of the first is 1.9-fold lower: 0.0022 s⁻¹ for the first, 0.0041 s⁻¹ for the second.

B5 and B6 are within 1.5-fold of each other in koff: 0.00394 s⁻¹ for the first, 0.00495 s⁻¹ for the second.

B7 and B1 are within 1.5-fold of each other in koff: 0.00254 s⁻¹ for the first, 0.00224 s⁻¹ for the second.

Going from B8 to B2, the koff rises from 0.00162 s⁻¹ to 0.0084 s⁻¹ (5.2-fold).

Going from B3 to B4, the kon falls from 4.26e+06 M⁻¹ s⁻¹ to 2.7e+06 M⁻¹ s⁻¹ (1.6-fold).

B5 and B6 are within 1.5-fold of each other in kon: 4.3e+06 M⁻¹ s⁻¹ for the first, 3.61e+06 M⁻¹ s⁻¹ for the second.

B7 and B1 are within 1.5-fold of each other in kon: 2.55e+06 M⁻¹ s⁻¹ for the first, 2.71e+06 M⁻¹ s⁻¹ for the second.

Compared with B8, B2 is 1.7-fold lower in kon: 1.29e+06 M⁻¹ s⁻¹ for the first, 756000 M⁻¹ s⁻¹ for the second.

Each binder was assayed against T1, mouse tissue factor pathway inhibitor … (assay: competitive ELISA).

Compared with B9, B3 is higher in variant/wild-type: 1.5 ratio for the first, 2 ratio for the second.

First: B4
Second: B10
The variant/wild-type of the first is higher: 2 ratio for the first, 1.5 ratio for the second.

Compared with B11, B12 is higher in variant/wild-type: 0.7 ratio for the first, 1.2 ratio for the second.

Compared with B5, B13 is lower in variant/wild-type: 2.1 ratio for the first, 1.2 ratio for the second.

Going from B14 to B15, the variant/wild-type falls from 2 ratio to 1.5 ratio.

Going from B6 to B16, the variant/wild-type falls from 1.4 ratio to 1.2 ratio.

Compared with B17, B18 is higher in variant/wild-type: 2.7 ratio for the first, 4.3 ratio for the second.

First: B7
Second: B19
The variant/wild-type of the first is higher: 3.9 ratio for the first, 2.6 ratio for the second.

Compared with B20, B1 is higher in variant/wild-type: 1.5 ratio for the first, 2.9 ratio for the second.

Compared with B21, B8 is lower in variant/wild-type: 1.2 ratio for the first, 0.7 ratio for the second.

What follows are binders tested against T2, human tissue factor pathway inhibitor … (assay: competitive ELISA).

First: B9
Second: B3
The variant/wild-type of the first is lower: 2 ratio for the first, 4.4 ratio for the second.

Going from B4 to B10, the variant/wild-type falls from 3.5 ratio to 3.4 ratio.

Going from B11 to B12, the variant/wild-type falls from 1.8 ratio to 1.7 ratio.

First: B5
Second: B13
The variant/wild-type of the first is higher: 4.4 ratio for the first, 2.6 ratio for the second.

Going from B14 to B15, the variant/wild-type rises from 3.1 ratio to 3.5 ratio.

Going from B6 to B16, the variant/wild-type falls from 3.9 ratio to 3.2 ratio.

Compared with B17, B18 is lower in variant/wild-type: 5.3 ratio for the first, 4 ratio for the second.

Compared with B7, B19 is lower in variant/wild-type: 7.5 ratio for the first, 3.8 ratio for the second.

Going from B20 to B1, the variant/wild-type rises from 1.7 ratio to 5.1 ratio.

First: B21
Second: B8
The variant/wild-type of the first is lower: 2 ratio for the first, 7.3 ratio for the second.

Biological target: T2, human tissue factor pathway inhibitor …
Assay: SPR, TFPI immobilized
Remark: another data set of the same source

Compared with B2, B22 is higher in KD fold improvement: 1 fold for the first, 1090 fold for the second.

Binder B23 has a KD fold improvement of 1550 fold.

First: B2
Second: B22
The Kd of the first is 1100-fold higher: 11.1 nM for the first, 0.0102 nM for the second. The second binds more tightly here.

Work on B23 yielded a Kd of 0.00716 nM.

First: B2
Second: B22
The koff of the first is 880-fold higher: 0.0084 s⁻¹ for the first, 9.55e-06 s⁻¹ for the second.

B23 showed a koff of 2.47e-05 s⁻¹.

B2 and B22 are within 1.5-fold of each other in kon: 756000 M⁻¹ s⁻¹ for the first, 938000 M⁻¹ s⁻¹ for the second.

With B23 the kon was 3.46e+06 M⁻¹ s⁻¹.

Biological target: T1, mouse tissue factor pathway inhibitor …
Assay: SPR, TFPI immobilized
Remark: another data set of the same source

First: B2
Second: B22
The KD fold improvement of the first is lower: 1 fold for the first, 275 fold for the second.

Binder B23 has a KD fold improvement of 1060 fold.

Going from B2 to B22, the Kd falls from 54.7 nM to 0.199 nM (270-fold).

Work on B23 yielded a Kd of 0.0519 nM.

First: B2
Second: B22
The koff of the first is 930-fold higher: 0.172 s⁻¹ for the first, 0.000185 s⁻¹ for the second.

Binder B23 has a koff of 0.000245 s⁻¹.

Going from B2 to B22, the kon falls from 3.15e+06 M⁻¹ s⁻¹ to 929000 M⁻¹ s⁻¹ (3.4-fold).

Work on B23 yielded a kon of 4.73e+06 M⁻¹ s⁻¹.

Biological target: T1, mouse tissue factor pathway inhibitor …
Assay: competitive ELISA
Remark: another data set of the same source

Going from B22 to B23, the variant/HC_D62R rises from 25.5 ratio to 42 ratio.

Biological target: T2, human tissue factor pathway inhibitor …
Assay: competitive ELISA
Remark: another data set of the same source

First: B22
Second: B23
The variant/HC_D62R of the first is lower: 22.6 ratio for the first, 29.7 ratio for the second.

What follows are binders tested against recombinant TFPI of the FXa restoring assay (human, mouse or rat; not specified for Tables 9 and 10) (assay: cell-based or functional assay).

First: B7
Second: B8
The “IC50, FXa restoring assay” value of the first is 1.9-fold lower: 0.39 µg/mL for the first, 0.76 µg/mL for the second.

With B2 the “IC50, FXa restoring assay” value was 1.46 µg/mL.

Going from B7 to B8, the “Improvement vs parental, FXa restoring assay” value falls from 1.6 fold to 0.9 fold.

With B2 the “Improvement vs parental, FXa restoring assay” value was 1 fold.
